T1: EsCas13d, nuclease-dead (Eubacterium siraeum, UniProt B0MS50, R295A;H300A;R849A;H854A)
T1 sequence: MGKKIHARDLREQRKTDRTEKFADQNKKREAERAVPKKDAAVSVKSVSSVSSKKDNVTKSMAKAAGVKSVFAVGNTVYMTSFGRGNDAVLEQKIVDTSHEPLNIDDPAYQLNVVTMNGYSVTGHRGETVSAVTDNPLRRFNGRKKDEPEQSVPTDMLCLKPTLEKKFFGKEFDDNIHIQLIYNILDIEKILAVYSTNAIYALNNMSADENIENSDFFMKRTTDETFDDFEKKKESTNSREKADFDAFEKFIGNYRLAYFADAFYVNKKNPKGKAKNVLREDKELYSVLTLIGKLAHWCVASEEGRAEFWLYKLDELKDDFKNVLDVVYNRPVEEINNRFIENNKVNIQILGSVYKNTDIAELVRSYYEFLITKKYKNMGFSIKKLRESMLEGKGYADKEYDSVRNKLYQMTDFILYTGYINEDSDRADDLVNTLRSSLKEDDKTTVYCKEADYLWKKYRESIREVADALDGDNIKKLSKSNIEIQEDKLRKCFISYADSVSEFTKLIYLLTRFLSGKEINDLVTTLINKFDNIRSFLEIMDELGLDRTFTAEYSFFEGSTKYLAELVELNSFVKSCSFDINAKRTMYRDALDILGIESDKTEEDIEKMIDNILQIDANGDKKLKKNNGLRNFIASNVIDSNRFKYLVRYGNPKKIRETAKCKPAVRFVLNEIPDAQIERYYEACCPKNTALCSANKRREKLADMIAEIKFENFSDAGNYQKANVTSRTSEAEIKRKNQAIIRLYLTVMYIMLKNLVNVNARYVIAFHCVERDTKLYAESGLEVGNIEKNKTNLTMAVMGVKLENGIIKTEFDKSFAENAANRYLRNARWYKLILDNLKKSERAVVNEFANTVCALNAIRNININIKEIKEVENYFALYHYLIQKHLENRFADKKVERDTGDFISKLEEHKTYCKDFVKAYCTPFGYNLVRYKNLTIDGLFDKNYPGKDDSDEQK

B1: target 2 MT 5'PFS UUG 3'PFS UAA (mixed)
RNA 1: CACCCGUGCAAAAUUGCAGGGGUCUAAAACCUUCUCCAAAUUGUUUCAUCCU
RNA 2: GGGAAUGGAUCCACAUCUACGAAUUCUUGAGGAUGAAACAAUUUGGAGAAGUAAAGAUCGGAAGAGCACACGU
B2: target 2 MT 5'PFS GCU 3'PFS CGC (mixed)
RNA 1: CACCCGUGCAAAAUUGCAGGGGUCUAAAACCUUCUCCAAAUUGUUUCAUCCU
RNA 2: GGGAAUGGAUCCACAUCUACGAAUUCGCUAGGAUGAAACAAUUUGGAGAAGCGCAGAUCGGAAGAGCACACGU
B3: target 2 MT 5'PFS CAG 3'PFS UCC (mixed)
RNA 1: CACCCGUGCAAAAUUGCAGGGGUCUAAAACCUUCUCCAAAUUGUUUCAUCCU
RNA 2: GGGAAUGGAUCCACAUCUACGAAUUCCAGAGGAUGAAACAAUUUGGAGAAGUCCAGAUCGGAAGAGCACACGU
B4: target 2 MT 5'PFS ACC 3'PFS ACA (mixed)
RNA 1: CACCCGUGCAAAAUUGCAGGGGUCUAAAACCUUCUCCAAAUUGUUUCAUCCU
RNA 2: GGGAAUGGAUCCACAUCUACGAAUUCACCAGGAUGAAACAAUUUGGAGAAGACAAGAUCGGAAGAGCACACGU
B5: target 2 MT 5'PFS AUA 3'PFS CAU (mixed)
RNA 1: CACCCGUGCAAAAUUGCAGGGGUCUAAAACCUUCUCCAAAUUGUUUCAUCCU
RNA 2: GGGAAUGGAUCCACAUCUACGAAUUCAUAAGGAUGAAACAAUUUGGAGAAGCAUAGAUCGGAAGAGCACACGU
B6: target 2 MT 5'PFS UUG 3'PFS UAG (mixed)
RNA 1: CACCCGUGCAAAAUUGCAGGGGUCUAAAACCUUCUCCAAAUUGUUUCAUCCU
RNA 2: GGGAAUGGAUCCACAUCUACGAAUUCUUGAGGAUGAAACAAUUUGGAGAAGUAGAGAUCGGAAGAGCACACGU
B7: target 2 MT 5'PFS CAU 3'PFS AGG (mixed)
RNA 1: CACCCGUGCAAAAUUGCAGGGGUCUAAAACCUUCUCCAAAUUGUUUCAUCCU
RNA 2: GGGAAUGGAUCCACAUCUACGAAUUCCAUAGGAUGAAACAAUUUGGAGAAGAGGAGAUCGGAAGAGCACACGU
B8: target 2 MT 5'PFS GGG 3'PFS AUG (mixed)
RNA 1: CACCCGUGCAAAAUUGCAGGGGUCUAAAACCUUCUCCAAAUUGUUUCAUCCU
RNA 2: GGGAAUGGAUCCACAUCUACGAAUUCGGGAGGAUGAAACAAUUUGGAGAAGAUGAGAUCGGAAGAGCACACGU
B9: target 2 MT 5'PFS GCC 3'PFS ACU (mixed)
RNA 1: CACCCGUGCAAAAUUGCAGGGGUCUAAAACCUUCUCCAAAUUGUUUCAUCCU
RNA 2: GGGAAUGGAUCCACAUCUACGAAUUCGCCAGGAUGAAACAAUUUGGAGAAGACUAGAUCGGAAGAGCACACGU
B10: target 2 MT 5'PFS AAG 3'PFS AGG (mixed)
RNA 1: CACCCGUGCAAAAUUGCAGGGGUCUAAAACCUUCUCCAAAUUGUUUCAUCCU
RNA 2: GGGAAUGGAUCCACAUCUACGAAUUCAAGAGGAUGAAACAAUUUGGAGAAGAGGAGAUCGGAAGAGCACACGU
B11: target 2 MT 5'PFS AAG 3'PFS CGG (mixed)
RNA 1: CACCCGUGCAAAAUUGCAGGGGUCUAAAACCUUCUCCAAAUUGUUUCAUCCU
RNA 2: GGGAAUGGAUCCACAUCUACGAAUUCAAGAGGAUGAAACAAUUUGGAGAAGCGGAGAUCGGAAGAGCACACGU
B12: target 2 MT 5'PFS AAG 3'PFS CGC (mixed)
RNA 1: CACCCGUGCAAAAUUGCAGGGGUCUAAAACCUUCUCCAAAUUGUUUCAUCCU
RNA 2: GGGAAUGGAUCCACAUCUACGAAUUCAAGAGGAUGAAACAAUUUGGAGAAGCGCAGAUCGGAAGAGCACACGU
B13: target 2 MT 5'PFS AUG 3'PFS UGU (mixed)
RNA 1: CACCCGUGCAAAAUUGCAGGGGUCUAAAACCUUCUCCAAAUUGUUUCAUCCU
RNA 2: GGGAAUGGAUCCACAUCUACGAAUUCAUGAGGAUGAAACAAUUUGGAGAAGUGUAGAUCGGAAGAGCACACGU
B14: target 2 MT 5'PFS AAG 3'PFS CGA (mixed)
RNA 1: CACCCGUGCAAAAUUGCAGGGGUCUAAAACCUUCUCCAAAUUGUUUCAUCCU
RNA 2: GGGAAUGGAUCCACAUCUACGAAUUCAAGAGGAUGAAACAAUUUGGAGAAGCGAAGAUCGGAAGAGCACACGU
B15: target 2 MT 5'PFS GAA 3'PFS UAU (mixed)
RNA 1: CACCCGUGCAAAAUUGCAGGGGUCUAAAACCUUCUCCAAAUUGUUUCAUCCU
RNA 2: GGGAAUGGAUCCACAUCUACGAAUUCGAAAGGAUGAAACAAUUUGGAGAAGUAUAGAUCGGAAGAGCACACGU
B16: target 2 MT 5'PFS GGG 3'PFS AUC (mixed)
RNA 1: CACCCGUGCAAAAUUGCAGGGGUCUAAAACCUUCUCCAAAUUGUUUCAUCCU
RNA 2: GGGAAUGGAUCCACAUCUACGAAUUCGGGAGGAUGAAACAAUUUGGAGAAGAUCAGAUCGGAAGAGCACACGU
B17: target 2 MT 5'PFS UGG 3'PFS UAC (mixed)
RNA 1: CACCCGUGCAAAAUUGCAGGGGUCUAAAACCUUCUCCAAAUUGUUUCAUCCU
RNA 2: GGGAAUGGAUCCACAUCUACGAAUUCUGGAGGAUGAAACAAUUUGGAGAAGUACAGAUCGGAAGAGCACACGU
B18: target 2 MT 5'PFS GGG 3'PFS AUU (mixed)
RNA 1: CACCCGUGCAAAAUUGCAGGGGUCUAAAACCUUCUCCAAAUUGUUUCAUCCU
RNA 2: GGGAAUGGAUCCACAUCUACGAAUUCGGGAGGAUGAAACAAUUUGGAGAAGAUUAGAUCGGAAGAGCACACGU
B19: target 2 MT 5'PFS UAU 3'PFS ACG (mixed)
RNA 1: CACCCGUGCAAAAUUGCAGGGGUCUAAAACCUUCUCCAAAUUGUUUCAUCCU
RNA 2: GGGAAUGGAUCCACAUCUACGAAUUCUAUAGGAUGAAACAAUUUGGAGAAGACGAGAUCGGAAGAGCACACGU
B20: target 2 MT 5'PFS ACA 3'PFS CUU (mixed)
RNA 1: CACCCGUGCAAAAUUGCAGGGGUCUAAAACCUUCUCCAAAUUGUUUCAUCCU
RNA 2: GGGAAUGGAUCCACAUCUACGAAUUCACAAGGAUGAAACAAUUUGGAGAAGCUUAGAUCGGAAGAGCACACGU
B21: target 2 MT 5'PFS UAU 3'PFS ACU (mixed)
RNA 1: CACCCGUGCAAAAUUGCAGGGGUCUAAAACCUUCUCCAAAUUGUUUCAUCCU
RNA 2: GGGAAUGGAUCCACAUCUACGAAUUCUAUAGGAUGAAACAAUUUGGAGAAGACUAGAUCGGAAGAGCACACGU
B22: target 2 MT 5'PFS AAG 3'PFS AGA (mixed)
RNA 1: CACCCGUGCAAAAUUGCAGGGGUCUAAAACCUUCUCCAAAUUGUUUCAUCCU
RNA 2: GGGAAUGGAUCCACAUCUACGAAUUCAAGAGGAUGAAACAAUUUGGAGAAGAGAAGAUCGGAAGAGCACACGU
B23: target 2 MT 5'PFS ACA 3'PFS CUC (mixed)
RNA 1: CACCCGUGCAAAAUUGCAGGGGUCUAAAACCUUCUCCAAAUUGUUUCAUCCU
RNA 2: GGGAAUGGAUCCACAUCUACGAAUUCACAAGGAUGAAACAAUUUGGAGAAGCUCAGAUCGGAAGAGCACACGU
B24: target 2 MT 5'PFS AAG 3'PFS AGC (mixed)
RNA 1: CACCCGUGCAAAAUUGCAGGGGUCUAAAACCUUCUCCAAAUUGUUUCAUCCU
RNA 2: GGGAAUGGAUCCACAUCUACGAAUUCAAGAGGAUGAAACAAUUUGGAGAAGAGCAGAUCGGAAGAGCACACGU
B25: target 2 MT 5'PFS GGG 3'PFS AUA (mixed)
RNA 1: CACCCGUGCAAAAUUGCAGGGGUCUAAAACCUUCUCCAAAUUGUUUCAUCCU
RNA 2: GGGAAUGGAUCCACAUCUACGAAUUCGGGAGGAUGAAACAAUUUGGAGAAGAUAAGAUCGGAAGAGCACACGU
B26: target 1 C7A,A18C (mixed)
RNA 1: CACCCGUGCAAAAAUGCAGGGGUCUAAAACUGAGCGGAUAACCUCUCUAUGG
RNA 2: GGGAAUGGAUCCACAUCUACGAAUUCGUACCAUCGAGAGGUUAUACGCUCACCGAGAUCGGAAGAGCACACGU
B27: target 1 insU 3' of 15,insA 3' of 8 (mixed)
RNA 1: CACCCGUGCAAAAAUGCAGGGGUCUAAAACUGAGCGGAUAACCUCUCUAUGG
RNA 2: GGGAAUGGAUCCACAUCUACGAAUUCGUACCAUAGAGUAGGUUAUACCGCUCACCGAGAUCGGAAGAGCACACGU

The target in this data set is T1, EsCas13d, nuclease-dead. Put plainly: crRNA (strand 1, pre-loaded); Mg2+; 40 mM Tris-HCl pH 7.5, 150 mM NaCl, 6 mM MgCl2, 1 mM DTT, 0.1% Tween-20, 0.2 mg/ml BSA; 25 C; 10 min per concentration, then washed. The note with it: tags: His6-TwinStrep-SUMO cleaved; N-terminal SNAP kept (SNAP-Surface 488); label: 3' end held by stalled T7 RNA polymerase.
By Kd is commonly meant the equilibrium constant for the complex coming apart. Read a high Kd as a looser complex. The molecule B1 gave a Kd of 12.8 ± 2 nM.
Next, B2: 12.1 ± 1.3 nM; B3: 29 ± 8 nM.
For B4 the value was 8 ± 4 nM; for B5, 4.6 ± 0.8 nM; for B6, 10.9 ± 1.2 nM.
Turning to B7, binding was characterised by a dissociation constant (Kd) of 2.8 ± 0.4 nM.
As to B8, binding was put at a Kd of 9.2 ± 0.6 nM.
In the case of B9, the Kd was 12.9 ± 1.9 nM.
B10 displayed a Kd of 5.7 ± 1 nM.
Next, B11: 3.4 ± 0.5 nM; B12: 3.34 ± 0.31 nM.
B13 had a Kd of 21 ± 2.6 nM.
Next, B14: 4.5 ± 0.5 nM; B15: 7.8 ± 1 nM.
B16 returned a Kd of 8.5 ± 0.8 nM.
In the case of B17, binding was put at a Kd of 8.6 ± 0.9 nM.
Molecule B18 returned a Kd of 9 ± 0.8 nM.
Molecule B19 came in with a Kd of 58 ± 6 nM.
Next, B20: 12 ± 4 nM; B21: 76 ± 25 nM; B22: 2.5 ± 0.28 nM.
In turn, B23 displayed a Kd of 6.7 ± 1 nM.
The molecule B24 returned a Kd of 3.7 ± 0.4 nM.
B25 displayed a Kd of 7.1 ± 0.5 nM.
For B26, binding was put at a Kd of 70 ± 6 nM.
In the case of B27, the Kd worked out at 16.8 ± 2 nM.

The values above are taken from article PMC10786891, “Massively parallel profiling of RNA-targeting CRISPR-Cas13d”.
